{"source": "patent US20230213527A1", "about": "“COMPOSITIONS AND METHODS FOR POLYPEPTIDE ANALYSIS” (Quantum-Si Incorporated, priority 2021, published 2023)", "key": {"PS610": {"tested_on": "PS610", "assay": "Dynamic single-molecule sequencing, recognition by PS610", "assay_type": "binding, A. tumefaciens", "conditions": "for Pulse Width: recognizer PS610, recognition of the N-terminal amino acid; for Median pulse duration of tyrosine recognition by PS610: P38MAPKa-derived peptides, PS610, PS961, PS621", "method": "The semiconductor chip was placed in the sequencing device and a chip check was performed to test electronic circuit function and to optimize laser coupling alignment. The chip was then removed from the device socket and the chip was washed twice with 50 μL of 70% isopropanol, followed by four washes with 30 μL of wash buffer (50 mM MOPS pH 8.0, 60 mM potassium acetate, 50 mM glucose, 20 mM magnesium acetate, and surfactant mix) through a flow cell attached to the chip. A second chip check was then performed. […] The chip was then washed six times with wash buffer, followed by addition of an imaging solution (wash buffer with 5 mM Trolox and an oxygen scavenging system). The laser was unblocked and the occupancy percentage (target 10-30%, Poisson distributed) was recorded by acquiring a photobleaching signal from a fluorophore attached to the peptide complex during 5 min of laser illumination. […] The laser was then blocked briefly and aminopeptidases were added to the sequencing reaction via the flow cell and mixed thoroughly (final concentration 2-8 μM PhTET2 and/or 20-80 μM PhTET3, as indicated according to the experiment). The laser was then unblocked, and data was recorded for 10 hours. For all runs, 30 μL of mineral oil was added to fluid reservoirs at each port of the flow cell to prevent evaporation during the run.\nThe measured signal on-chip comprises various noise components, the most dominant one being due to fluorescent emissions from diffusing recognizers in the reaction chamber. The pulse caller algorithm for a given reaction chamber starts by estimating the statistical properties of this background noise component. Once an estimate within certain error bounds has been established, the algorithm works in an online fashion observing new frames of data as they are generated. At each point in time, the algorithm maintains state indicating whether the signal is due to the background component only or a pulse from a recognizer-NAA interaction is being observed. The state transition from background to pulse is triggered using an edge detection test where the shift in signal is expected to be significant with respect to the background component's statistical distribution. The state transition from pulse to background is triggered when a small window of the most recent frames of the signal appears to conform to the background component's distribution again. The algorithm maintains an updated model of the background component as new background frames are observed. This provides robustness against drift in the signal intensity together with a feedback control loop that maintains a stable optical coupling of the laser into the chip based on any such detected drift. As detected pulses can be due to true recognizer-to-dipeptide interaction events as well as other occasional transient noise spikes, a downstream filter layer is employed to test the significance of pulse events based on their duration, intensity, and noise patterns within the context of the full timeline of the run and the entire dataset of reaction chambers.\nInitial regions are determined by performing a sliding window calculation of pulse rate along the time dimension of a series of pulses. Regions with a mean pulse rate >1 pulse/min are then subdivided according to a greedy bisection approach. Here, the pulses on the left and right of each potential split are assessed for statistically significant deviation in any of four separate pulse properties—intensity, bin ratio, pulse duration, and interpulse duration—using a Mann-Whitney U Test. To define RSs, the split point with the lowest p-value for any of the four properties is used to sub-divide the region and the process continues until no regions remain with a candidate split point with p-value <10^−5 in any comparison. In this manner, transitions from one RS to the next in a region of continuous pulsing are determined a priori on the basis of changes in fluorescence properties of pulsing kinetics."}, "PS621": {"molecular_target": "T1, PS621 (Kluyveromyces lactis, UniProt O60014, E174T/N105S/N176F/R116K/S153T/V146T)", "T1 construct": "PS621; […]", "T1 sequence (O60014 other isoform, or with tags, fused parts or gaps N105S/R116K/V146T/S153T/E174T/N176F)": "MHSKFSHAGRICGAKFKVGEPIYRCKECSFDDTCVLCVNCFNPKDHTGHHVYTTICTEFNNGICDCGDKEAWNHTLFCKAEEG", "assay": "Dynamic single-molecule sequencing, recognition by PS621", "assay_type": "binding", "conditions": "for PW of R-X / RS R-X: unmodified arginine peptide; for PW of R-X / PW of ADMA-X / RS ADMA-X / RS R-X: average of 10 sequencing reactions; for PW of ADMA-X / RS ADMA-X: ADMA peptide; for RS ADMA-X / RS R-X: RS duration; for Median interpulse duration (IPD) of arginine recognition by PS621 / Binding with the recognizer PS621: P38MAPKa-derived peptides; for Binding with the recognizer PS621: residue at position 2", "excerpt": "PTM detection involved isolating peptides and subjecting them to a real-time single-molecule protein sequencing reaction. Proteins were first digested into peptide fragments and conjugated C-terminally to macromolecular linkers. The peptide complexes were immobilized at the bottom of nanoscale wells on a semiconductor chip, resulting in single peptide molecules with exposed N-termini ready for sequencing. During the sequencing reaction, the surface-immobilized peptides were exposed to a solution containing dye-labeled NAA recognizers that bound on and off to their cognate NAAs with characteristic kinetic properties. Aminopeptidases in solution sequentially removed individual NAAs to expose subsequent amino acids for recognition. Fluorescence lifetime, intensity, and kinetic data were collected in real time and analyzed to determine amino acid sequence and PTM content.\nThe trace-level output included distinct pulsing regions called recognition segments (RSs); each RS corresponded to a period of time between aminopeptidase cleavage events during which an NAA recognizer bound on and off to its exposed target NAA. Chemical modifications to a target NAA or to a nearby downstream amino acid can modulate recognizer affinity, resulting in a characteristic change in the average pulse duration (PD) during an RS relative to an unmodified peptide. These modifications can also influence the rate of aminopeptidase cleavage of an NAA, resulting in a characteristic change in average duration of the corresponding RS.\nSynthetic peptides corresponding to residues 69 to 76 of P38MAPKa were generated in three versions containing either arginine, ADMA, or SDMA at position 2: YRELRLLK (SEQ ID NO: 834), YRADMAELRLLK (SEQ ID NO: 835), and YRSDMAELRLLK (SEQ ID NO: 836). Each peptide was sequenced using three recognizers—PS610 (F, Y, W), PS961 (L, I, V), and PS621 (R)—and data were analyzed to identify RSs, determine the mean PD of each RS, and characterize the kinetic signature of each peptide.\nIn this example, sequencing reactions were performed using PS621 (R), PS610 (FYW), and PS961 (LIV) recognizers for 9 pairs of peptides. Each pair comprised one peptide comprising an unmodified arginine residue followed by a non-arginine amino acid (referred to as an R-X peptide) and one peptide having an identical sequence except that the unmodified arginine was modified to be ADMA (referred to as an ADMA-X peptide)."}}, "note": "Square brackets hold non-standard residues; d marks the D form. Ends that are not written are not given here. Cit = NC(=O)NCCC[C@H](N)C(=O)O", "data": [{"substance": "FCitLAFAYPDDDK (F[Cit]LAFAYPDDDK-NH2; also: C-terminal azidolysine (general statement for all synthetic peptides)) [QP1029]", "values": [{"measurement": "Pulse Width", "setting": "PS610", "result": 5.24, "unit": "s"}]}, {"substance": "FRLAFAYPDDDK (FRLAFAYPDDDK-NH2; not fully specified (residue 2); also: all synthetic peptides contained C-terminal Fmoc-azidolysine) [QP1028]", "values": [{"measurement": "Pulse Width", "setting": "PS610", "result": 4.94, "unit": "s"}]}, {"substance": "LRAAFAYPDDDK [QP747]", "values": [{"measurement": "PW of R-X", "setting": "PS621", "result": "<0.12", "unit": "s"}]}, {"substance": "LRADMAAAFAYPDDDK [QP743]", "values": [{"measurement": "PW of ADMA-X", "setting": "PS621", "result": 0.19, "unit": "s"}]}, {"substance": "LRADMAEAFAYPDDDK [QP939]", "values": [{"measurement": "PW of ADMA-X", "setting": "PS621", "result": 0.34, "unit": "s"}]}, {"substance": "LRADMAIAFAYPDDDK [QP745]", "values": [{"measurement": "PW of ADMA-X", "setting": "PS621", "result": 0.32, "unit": "s"}, {"measurement": "RS ADMA-X", "setting": "PS621", "result": 46.9, "unit": "min"}]}, {"substance": "LRADMALAFAYPDDDK [QP729]", "values": [{"measurement": "PW of ADMA-X", "setting": "PS621", "result": 0.48, "unit": "s"}, {"measurement": "RS ADMA-X", "setting": "PS621", "result": 48.5, "unit": "min"}]}, {"substance": "LRADMAQAFAYPDDDK [QP944]", "values": [{"measurement": "PW of ADMA-X", "setting": "PS621", "result": 0.21, "unit": "s"}]}, {"substance": "LRADMASAFAYPDDDK [QP744]", "values": [{"measurement": "PW of ADMA-X", "setting": "PS621", "result": 0.55, "unit": "s"}]}, {"substance": "LRADMATAFAYPDDDK [QP945]", "values": [{"measurement": "PW of ADMA-X", "setting": "PS621", "result": "<0.06", "unit": "s"}]}, {"substance": "LRADMAVAFAYPDDDK [QP946]", "values": [{"measurement": "PW of ADMA-X", "setting": "PS621", "result": 0.32, "unit": "s"}, {"measurement": "RS ADMA-X", "setting": "PS621", "result": 33.8, "unit": "min"}]}, {"substance": "LRADMAYAFAYPDDDK [QP742]", "values": [{"measurement": "PW of ADMA-X", "setting": "PS621", "result": 0.25, "unit": "s"}, {"measurement": "RS ADMA-X", "setting": "PS621", "result": 39.2, "unit": "min"}]}, {"substance": "LREAFAYPDDDK [QP938]", "values": [{"measurement": "PW of R-X", "setting": "PS621", "result": "<0.06", "unit": "s"}]}, {"substance": "LRIAFAYPDDDK [QP749]", "values": [{"measurement": "RS R-X", "setting": "PS621", "result": 15.4, "unit": "min"}, {"measurement": "PW of R-X", "setting": "PS621", "result": 0.28, "unit": "s"}]}, {"substance": "LRQAFAYPDDDK [QP941]", "values": [{"measurement": "PW of R-X", "setting": "PS621", "result": "<0.06", "unit": "s"}]}, {"substance": "LRSAFAYPDDDK [QP748]", "values": [{"measurement": "PW of R-X", "setting": "PS621", "result": "<0.12", "unit": "s"}]}, {"substance": "LRTAFAYPDDDK [QP942]", "values": [{"measurement": "PW of R-X", "setting": "PS621", "result": "<0.06", "unit": "s"}]}, {"substance": "LRVAFAYPDDDK [QP943]", "values": [{"measurement": "RS R-X", "setting": "PS621", "result": 25.5, "unit": "min"}, {"measurement": "PW of R-X", "setting": "PS621", "result": 0.41, "unit": "s"}]}, {"substance": "LRYAFAYPDDDK [QP746]", "values": [{"measurement": "RS R-X", "setting": "PS621", "result": 9.6, "unit": "min"}, {"measurement": "PW of R-X", "setting": "PS621", "result": 0.18, "unit": "s"}]}, {"substance": "YCitIAFAYPDDDK (Y[Cit]IAFAYPDDDK-NH2; also: C-terminal azidolysine (general statement for all synthetic peptides)) [QP1031]", "values": [{"measurement": "Pulse Width", "setting": "PS610", "result": 1.12, "unit": "s"}]}, {"substance": "YRADMAE (YRELRLLK) [YRADMAELRLLK, P38MAPKa peptide with asymmetric dimethylarginine at position 2]", "values": [{"measurement": "Median pulse duration of tyrosine recognition by PS610", "setting": "PS610", "result": 1.47, "unit": "s"}, {"measurement": "Median interpulse duration (IPD) of arginine recognition by PS621", "setting": "PS621", "result": 5.82, "unit": "s"}, {"measurement": "Binding with the recognizer PS621", "setting": "PS621", "result": "binding"}]}, {"substance": "YRELRLLK", "values": [{"measurement": "Median pulse duration of tyrosine recognition by PS610", "setting": "PS610", "result": 0.69, "unit": "s"}, {"measurement": "Median interpulse duration (IPD) of arginine recognition by PS621", "setting": "PS621", "result": 10.05, "unit": "s"}, {"measurement": "Binding with the recognizer PS621", "setting": "PS621", "result": "binding"}]}, {"substance": "YRIAFAYPDDDK (YRIAFAYPDDDK-NH2; not fully specified (residue 2); also: all synthetic peptides contained C-terminal Fmoc-azidolysine) [QP1030]", "values": [{"measurement": "Pulse Width", "setting": "PS610", "result": 0.77, "unit": "s"}]}, {"substance": "YRSDMAELRLLK (YRELRLLK) [P38MAPKa peptide with symmetric dimethylarginine at position 2]", "values": [{"measurement": "Median pulse duration of tyrosine recognition by PS610", "setting": "PS610", "result": 1.48, "unit": "s"}, {"measurement": "Binding with the recognizer PS621", "setting": "PS621", "result": "no binding"}]}]}
